Where no end group is shown, it is not given here. The star is where a group is joined. Biotin = O=C1N[C@H]2[C@H](CS[C@H]2CCCCC(=O)*)N1; Ahx = NCCCCCC(=O)O
Assays:
[1] = molecular target: T1, PPARδ (Gal4-PPARδ LBD, transactivation) (Homo sapiens, UniProt Q03181); experiment: Gal4-LBD luciferase transactivation, BHK21 cells; format: cell-based; conditions: agonist; […] h, […] °C; unreliable
T1 construct: gene PPARD
T1 sequence (Q03181 139-441): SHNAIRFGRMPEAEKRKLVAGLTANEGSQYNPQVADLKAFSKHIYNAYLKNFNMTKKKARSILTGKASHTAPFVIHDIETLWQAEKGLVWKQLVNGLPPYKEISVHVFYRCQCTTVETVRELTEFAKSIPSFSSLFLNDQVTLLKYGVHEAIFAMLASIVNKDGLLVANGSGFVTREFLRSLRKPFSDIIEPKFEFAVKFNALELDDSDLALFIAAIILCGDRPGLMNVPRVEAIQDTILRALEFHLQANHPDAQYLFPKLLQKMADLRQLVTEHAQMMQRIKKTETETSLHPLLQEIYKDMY

[2] = molecular target: T2, PPARγ (Gal4-PPARγ LBD, transactivation) (Mus musculus, UniProt P37238); experiment: Gal4-LBD luciferase transactivation, BHK21 cells; format: cell-based; conditions: agonist; […] h, […] °C; unreliable
T2 construct: gene Pparg
T2 sequence (P37238 204-505): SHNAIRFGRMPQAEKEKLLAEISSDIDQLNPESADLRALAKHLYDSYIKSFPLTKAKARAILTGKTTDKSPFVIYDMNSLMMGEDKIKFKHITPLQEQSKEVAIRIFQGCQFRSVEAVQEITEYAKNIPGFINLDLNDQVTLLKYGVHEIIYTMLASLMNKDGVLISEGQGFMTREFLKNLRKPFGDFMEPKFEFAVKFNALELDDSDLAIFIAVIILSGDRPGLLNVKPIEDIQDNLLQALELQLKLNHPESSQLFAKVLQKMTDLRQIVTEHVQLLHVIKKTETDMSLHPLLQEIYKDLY

[3] = molecular target: T3, GST–PPARα (ligand binding domain, TR-FRET) (Homo sapiens, UniProt Q07869); experiment: TR-FRET cofactor peptide recruitment
T3 construct: gene PPARA
T3 sequence (Q07869 196-468 limits assumed): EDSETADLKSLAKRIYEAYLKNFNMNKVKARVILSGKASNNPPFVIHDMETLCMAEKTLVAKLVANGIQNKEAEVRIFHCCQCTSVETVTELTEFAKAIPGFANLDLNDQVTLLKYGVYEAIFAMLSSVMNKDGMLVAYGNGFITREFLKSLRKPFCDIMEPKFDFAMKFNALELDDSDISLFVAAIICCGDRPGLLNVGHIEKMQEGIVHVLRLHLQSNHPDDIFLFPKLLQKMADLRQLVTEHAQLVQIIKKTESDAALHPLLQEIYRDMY

[4] = molecular target: T4, GST–PPARγ fusion protein (purified ligand binding domain of PPARγ); experiment: FRET or BRET; homogeneous TR-FRET as a1, 12-concentration dose–response of rosiglitazone; the EC50 is of the compound; delta ratio in % of the reference compound at 10 μM (RO4899100 for PPARα, edaglitazone for PPARγ); conditions: both partners purified
T4 chain: T2 sequence (P37238 204-505)

[5] = molecular target: T4, GST–PPARγ fusion protein (purified …); experiment: FRET or BRET; homogeneous TR-FRET as a1, 12-concentration dose–response of edaglitazone; the EC50 is of the compound; delta ratio in % of the reference compound at 10 μM (RO4899100 for PPARα, edaglitazone for PPARγ); conditions: both partners purified
[6] = molecular target: T4, GST–PPARγ fusion protein (purified …); experiment: FRET or BRET; homogeneous TR-FRET as a1, 12-concentration dose–response of aleglitazar; the EC50 is of the compound; delta ratio in % of the reference compound at 10 μM (RO4899100 for PPARα, edaglitazone for PPARγ); conditions: both partners purified
[7] = molecular target: T4, GST–PPARγ fusion protein (purified …); experiment: FRET or BRET; homogeneous TR-FRET as a1, 12-concentration dose–response of RO4899100; the EC50 is of the compound; delta ratio in % of the reference compound at 10 μM (RO4899100 for PPARα, edaglitazone for PPARγ); conditions: both partners purified
[8] = molecular target: T4, GST–PPARγ fusion protein (purified …); experiment: FRET or BRET; homogeneous TR-FRET as a1, 12-concentration dose–response of farglitazar; the EC50 is of the compound; delta ratio in % of the reference compound edaglitazone at 10 μM; conditions: both partners purified
[9] = molecular target: T4, GST–PPARγ fusion protein (purified …); experiment: FRET or BRET; homogeneous TR-FRET as a1, 12-concentration dose–response of muraglitazar; the EC50 is of the compound; delta ratio in % of the reference compound at 10 μM (RO4899100 for PPARα, edaglitazone for PPARγ); conditions: both partners purified
[10] = molecular target: T4, GST–PPARγ fusion protein (purified …); experiment: FRET or BRET; homogeneous TR-FRET as a1, 12-concentration dose–response of pioglitazone; the EC50 is of the compound; delta ratio in % of the reference compound at 10 μM (RO4899100 for PPARα, edaglitazone for PPARγ); conditions: both partners purified
[11] = molecular target: T4, GST–PPARγ fusion protein (purified …); experiment: FRET or BRET; homogeneous TR-FRET as a1, 12-concentration dose–response of tesaglitazar; the EC50 is of the compound; delta ratio in % of the reference compound at 10 μM (RO4899100 for PPARα, edaglitazone for PPARγ); conditions: both partners purified
[12] = molecular target: T5, GST–PPARα fusion protein (purified ligand binding domain of PPARα); experiment: FRET or BRET; homogeneous TR-FRET as a1, 12-concentration dose–response of muraglitazar; the EC50 is of the compound; delta ratio in % of the reference compound at 10 μM (RO4899100 for PPARα, edaglitazone for PPARγ)
T5 sequence (Q07869 whole entry, species assumed, looked up): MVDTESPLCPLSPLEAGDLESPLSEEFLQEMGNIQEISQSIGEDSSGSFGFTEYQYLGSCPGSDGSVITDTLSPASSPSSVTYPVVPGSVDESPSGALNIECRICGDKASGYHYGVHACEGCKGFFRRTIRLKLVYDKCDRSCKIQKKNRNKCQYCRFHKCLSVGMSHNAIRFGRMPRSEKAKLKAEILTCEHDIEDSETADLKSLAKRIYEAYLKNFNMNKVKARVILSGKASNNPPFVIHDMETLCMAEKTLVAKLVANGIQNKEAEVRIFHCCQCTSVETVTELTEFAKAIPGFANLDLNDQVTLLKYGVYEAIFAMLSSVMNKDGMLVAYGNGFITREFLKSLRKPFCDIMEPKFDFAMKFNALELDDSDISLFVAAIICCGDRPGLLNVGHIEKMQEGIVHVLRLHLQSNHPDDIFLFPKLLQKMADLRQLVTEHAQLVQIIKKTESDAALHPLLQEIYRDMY

[13] = molecular target: T5, GST–PPARα fusion protein (purified ligand binding domain of PPARα); experiment: FRET or BRET; homogeneous TR-FRET as a1, 12-concentration dose–response of rosiglitazone; the EC50 is of the compound; delta ratio in % of the reference compound at 10 μM (RO4899100 for PPARα, edaglitazone for PPARγ)
[14] = molecular target: T5, GST–PPARα fusion protein (purified ligand binding domain of PPARα); experiment: FRET or BRET; homogeneous TR-FRET as a1, 12-concentration dose–response of fenofibric acid; the EC50 is of the compound; delta ratio in % of the reference compound RO4899100 at 10 μM
[15] = molecular target: T5, GST–PPARα fusion protein (purified ligand binding domain of PPARα); experiment: FRET or BRET; homogeneous TR-FRET as a1, 12-concentration dose–response of pioglitazone; the EC50 is of the compound; delta ratio in % of the reference compound at 10 μM (RO4899100 for PPARα, edaglitazone for PPARγ)
[16] = molecular target: T5, GST–PPARα fusion protein (purified ligand binding domain of PPARα); experiment: FRET or BRET; homogeneous TR-FRET as a1, 12-concentration dose–response of RO4899100; the EC50 is of the compound; delta ratio in % of the reference compound at 10 μM (RO4899100 for PPARα, edaglitazone for PPARγ)
[17] = molecular target: T5, GST–PPARα fusion protein (purified ligand binding domain of PPARα); experiment: FRET or BRET; homogeneous TR-FRET as a1, 12-concentration dose–response of edaglitazone; the EC50 is of the compound; delta ratio in % of the reference compound at 10 μM (RO4899100 for PPARα, edaglitazone for PPARγ)
[18] = molecular target: T5, GST–PPARα fusion protein (purified ligand binding domain of PPARα); experiment: FRET or BRET; homogeneous TR-FRET as a1, 12-concentration dose–response of tesaglitazar; the EC50 is of the compound; delta ratio in % of the reference compound at 10 μM (RO4899100 for PPARα, edaglitazone for PPARγ)
[19] = molecular target: T5, GST–PPARα fusion protein (purified ligand binding domain of PPARα); experiment: FRET or BRET; homogeneous TR-FRET as a1, 12-concentration dose–response of aleglitazar; the EC50 is of the compound; delta ratio in % of the reference compound at 10 μM (RO4899100 for PPARα, edaglitazone for PPARγ)

Molecule: CC(C)(Oc1ccc(C(=O)c2ccc(Cl)cc2)cc1)C(=O)O [Fenofibric acid]
- EC50 [1]: 1060 nM
- PPARδ / EC50 [2]: 1470 nM

Molecule: Cc1nc(-c2ccc(C(F)(F)F)cc2)ccc1CN(C)C(=O)c1cccc(OC(C)(C)C(=O)O)c1 [RO4899100, 2-methyl-2-(3-{methyl-[2-methyl-6-(4-trifluoromethyl-phenyl)pyridin-3-ylmethyl]carbamoyl}phenoxy)propionic acid]
- PPARδ / EC50 [nM] [2]: 19 900 nM

Molecule: Cc1oc(-c2ccccc2)nc1CCOc1ccc(CC2SC(=O)NC2=O)c2sccc12 (stereo not drawn) [Edaglitazone]
- EC50 [3]: 1050 nM

B1: CBP cofactor peptide (cAMP responsive element binding protein (CREB)-binding protein) (peptide)
peptide: {Biotin-Ahx}-SGNLVPDAASKHKQLSELLRGGSGS
notes: source: synthetic peptide (Jerini or Biosynthan, Berlin)
- EC50 of rosiglitazone for recruitment [4]: 10.4 nM
- EC50 of edaglitazone for recruitment [5]: 7.2 nM
- EC50 of aleglitazar for recruitment [6]: 3.3 nM
- EC50 of RO4899100 for recruitment [7]: 1990 nM
- EC50 of farglitazar for recruitment [8]: 3 nM
- EC50 of muraglitazar for recruitment [9]: 4.3 nM
- EC50 of pioglitazone for recruitment [10]: 79.1 nM
- EC50 of tesaglitazar for recruitment [11]: 13.9 nM

B2: SRC1_M2 cofactor peptide (steroid receptor co-activator 1, motif 2) (peptide)
peptide: {Biotin-Ahx}-CPSSHSSLTERHKILHRLLQEGSPS
notes: as for B1
- EC50 of rosiglitazone for recruitment [4]: 18.5 nM
- EC50 of edaglitazone for recruitment [5]: 9.8 nM
- EC50 of aleglitazar for recruitment [6]: 3.2 nM
- EC50 of RO4899100 for recruitment [7]: 2080 nM
- EC50 of farglitazar for recruitment [8]: 3.8 nM
- EC50 of muraglitazar for recruitment [9]: 5.7 nM
- EC50 of pioglitazone for recruitment [10]: 196 nM
- EC50 of tesaglitazar for recruitment [11]: 24.4 nM

B3: NCoR ID2 cofactor peptide (nuclear receptor co-repressor, interaction domain 2) (peptide)
peptide: {Biotin-Ahx}-ADPASNLGLEDIIRKALMGSF
notes: nuclear receptor co-repressor (NCoR), ID2; also called NCoR2; NcoR2; source: synthetic peptide (Jerini or Biosynthan, Berlin)
- EC50 of rosiglitazone for displacement [4]: 497 nM
- EC50 of edaglitazone for displacement [5]: 57.1 nM
- EC50 of aleglitazar for displacement [6]: 15.3 nM
- EC50 of muraglitazar for displacement [12]: 139 nM
- delta ratio with muraglitazar [12]: -50%
- EC50 of rosiglitazone for displacement [13]: 3000 nM
- delta ratio with rosiglitazone [13]: -31%
- EC50 of fenofibric acid for displacement [14]: 1900 nM
- delta ratio with fenofibric acid [14]: -55%
- EC50 of farglitazar for displacement [8]: 13.6 nM
- EC50 of pioglitazone for displacement [15]: 3220 nM
- delta ratio with pioglitazone [15]: -54%
- EC50 of muraglitazar for displacement [9]: 63.4 nM
- EC50 of pioglitazone for displacement [10]: 9420 nM
- EC50 of tesaglitazar for displacement [11]: 537 nM
- EC50 of RO4899100 for displacement [16]: 18.5 nM
- EC50 of edaglitazone for displacement [17]: 1950 nM
- delta ratio with edaglitazone [17]: -44%
- EC50 of tesaglitazar for displacement [18]: 646 nM
- delta ratio with tesaglitazar [18]: -54%
- EC50 of aleglitazar for displacement [19]: 1.7 nM
- delta ratio with aleglitazar [19]: -61%

B4: TRAP220 cofactor peptide (thyroid hormone receptor-associated protein complex 220 kDa component, motif 2) (peptide)
peptide: {Biotin-Ahx}-GNTKNHPMLMNLLKDNPAQDF
notes: thyroid hormone receptor-associated protein complex 220 kDa component (TRAP220), motif 2, residues 637-657; also called TRAP220_M2; TRAP220 M2; source: synthetic peptide (Jerini or Biosynthan, Berlin)
- EC50 of rosiglitazone for recruitment [4]: 41.3 nM
- EC50 of edaglitazone for recruitment [5]: 9.5 nM
- EC50 of aleglitazar for recruitment [6]: 3.2 nM
- EC50 of RO4899100 for recruitment [7]: 4410 nM
- EC50 of farglitazar for recruitment [8]: 3.5 nM
- EC50 of muraglitazar for recruitment [9]: 6.2 nM
- EC50 of pioglitazone for recruitment [10]: 431 nM
- EC50 of tesaglitazar for recruitment [11]: 31.6 nM

B5: SRC1_M4 cofactor peptide (steroid receptor co-activator 1, motif 4) (peptide)
peptide: {Biotin-Ahx}-TSGPQTPQAQQKSLLQQLLTE
notes: as for B1
- EC50 of rosiglitazone for recruitment [4]: 23.5 nM
- EC50 of aleglitazar for recruitment [6]: 3.4 nM
- EC50 of RO4899100 for recruitment [7]: 1450 nM
- EC50 of farglitazar for recruitment [8]: 3.3 nM
- EC50 of muraglitazar for recruitment [9]: 6.1 nM
- EC50 of pioglitazone for recruitment [10]: 222 nM
- EC50 of tesaglitazar for recruitment [11]: 25.5 nM
